# The supplement of paper PMC9112550, “Optimization of the antimicrobial peptide Bac7 by deep mutational scanning” (BMC Biology, 2022)
# Tested on: Escherichia coli TOP10
# Test: shrunken log2 fold change of peptide-encoding DNA abundance (4.5 h post-induction vs induction); higher = less antimicrobial activity (less host growth inhibition)
# Conditions: time post-induction: 4.5 h; library: site-saturation at positions 5, 18, 19, 20
# 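Further: peptides expressed intracellularly from a pBAD plasmid library in pooled LB shake-flask culture, induced with 0.3% L-arabinose, DNA abundance read by NGS, three biological replicates, DESeq2 with apeglm shrinkage.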
row,Sequence,shrunken log2 fold change
1,RRIRDRPPRLPRPRPRPNVQPRP,-0.131
2,RRIRDRPPRLPRPRPRPNWAPRP,0.00788
3,RRIRDRPPRLPRPRPRPNYSPRP,-0.792
4,RRIRDRPPRLPRPRPRPPCPPRP,0.173
5,RRIRDRPPRLPRPRPRPPCRPRP,-0.0227
6,RRIRDRPPRLPRPRPRPPDFPRP,0.0426
7,RRIRDRPPRLPRPRPRPPDGPRP,0.577
8,RRIRDRPPRLPRPRPRPPETPRP,0.743
9,RRIRDRPPRLPRPRPRPPFAPRP,0.427
10,RRIRDRPPRLPRPRPRPPHLPRP,0.0118
11,RRIRDRPPRLPRPRPRPPIMPRP,0.0621
12,RRIRDRPPRLPRPRPRPPKKPRP,0.0806
13,RRIRDRPPRLPRPRPRPPLAPRP,0.448
14,RRIRDRPPRLPRPRPRPPPEPRP,0.48
15,RRIRDRPPRLPRPRPRPPQMPRP,0.746
16,RRIRDRPPRLPRPRPRPPQPPRP,0.387
17,RRIRDRPPRLPRPRPRPPRHPRP,0.377
18,RRIRDRPPRLPRPRPRPPRMPRP,0.345
19,RRIRDRPPRLPRPRPRPPSMPRP,-0.147
20,RRIRDRPPRLPRPRPRPPVCPRP,0.452
21,RRIRDRPPRLPRPRPRPPVPPRP,0.635
22,RRIRDRPPRLPRPRPRPPYKPRP,-0.1
23,RRIRDRPPRLPRPRPRPPYQPRP,0.251
24,RRIRDRPPRLPRPRPRPQALPRP,0.214
25,RRIRDRPPRLPRPRPRPQAVPRP,0.164

row,Sequence,shrunken log2 fold change
1,RRIRDRPPRLPRPRPRPQCHPRP,-0.0594
2,RRIRDRPPRLPRPRPRPQCIPRP,-0.0275
3,RRIRDRPPRLPRPRPRPQDMPRP,-0.628
4,RRIRDRPPRLPRPRPRPQDNPRP,-0.0684
5,RRIRDRPPRLPRPRPRPQECPRP,0.0795
6,RRIRDRPPRLPRPRPRPQHAPRP,0.044
7,RRIRDRPPRLPRPRPRPQHNPRP,-0.554
8,RRIRDRPPRLPRPRPRPQKIPRP,0.0171
9,RRIRDRPPRLPRPRPRPQKKPRP,-0.0848
10,RRIRDRPPRLPRPRPRPQKYPRP,-0.432
11,RRIRDRPPRLPRPRPRPQLSPRP,0.103
12,RRIRDRPPRLPRPRPRPQRHPRP,0.0682
13,RRIRDRPPRLPRPRPRPQRNPRP,-0.0378
14,RRIRDRPPRLPRPRPRPQRWPRP,0.287
15,RRIRDRPPRLPRPRPRPQSQPRP,0.112
16,RRIRDRPPRLPRPRPRPQVEPRP,0.0699
17,RRIRDRPPRLPRPRPRPQWLPRP,0.24
18,RRIRDRPPRLPRPRPRPQYHPRP,-0.47
19,RRIRDRPPRLPRPRPRPRAEPRP,0.552
20,RRIRDRPPRLPRPRPRPRCEPRP,0.161
21,RRIRDRPPRLPRPRPRPRCVPRP,0.117
22,RRIRDRPPRLPRPRPRPRDFPRP,0.106
23,RRIRDRPPRLPRPRPRPREDPRP,0.293
24,RRIRDRPPRLPRPRPRPREQPRP,1.36
25,RRIRDRPPRLPRPRPRPRERPRP,0.352

row,Sequence,shrunken log2 fold change
1,RRIRDRPPRLPRPRPRPREYPRP,0.306
2,RRIRDRPPRLPRPRPRPRFGPRP,0.206
3,RRIRDRPPRLPRPRPRPRFNPRP,0.858
4,RRIRDRPPRLPRPRPRPRGGPRP,0.726
5,RRIRDRPPRLPRPRPRPRHYPRP,0.0264
6,RRIRDRPPRLPRPRPRPRIKPRP,-0.454
7,RRIRDRPPRLPRPRPRPRKDPRP,-0.108
8,RRIRDRPPRLPRPRPRPRKFPRP,-0.0848
9,RRIRDRPPRLPRPRPRPRQFPRP,0.0037
10,RRIRDRPPRLPRPRPRPRQKPRP,0.56
11,RRIRDRPPRLPRPRPRPRQSPRP,-0.00504
12,RRIRDRPPRLPRPRPRPRQTPRP,0.612
13,RRIRDRPPRLPRPRPRPRRTPRP,0.186
14,RRIRDRPPRLPRPRPRPRTLPRP,0.14
15,RRIRDRPPRLPRPRPRPRWVPRP,0.263
16,RRIRDRPPRLPRPRPRPRYSPRP,-0.662
17,RRIRDRPPRLPRPRPRPSALPRP,0.162
18,RRIRDRPPRLPRPRPRPSATPRP,0.515
19,RRIRDRPPRLPRPRPRPSCVPRP,0.282
20,RRIRDRPPRLPRPRPRPSEKPRP,-0.0166
21,RRIRDRPPRLPRPRPRPSERPRP,0.0188
22,RRIRDRPPRLPRPRPRPSFSPRP,-0.0351
23,RRIRDRPPRLPRPRPRPSHMPRP,-0.0936
24,RRIRDRPPRLPRPRPRPSIFPRP,-0.049
25,RRIRDRPPRLPRPRPRPSILPRP,0.202
